These results are taken from article PMC4632185, “Mechanistic basis of Nek7 activation through Nek9 binding and induced dimerization” (Nature Communications, 2015).

To fix the notation:
B2: Nek7 N90A (enzyme)
chain: not shown
B4: Nek7 N90R (enzyme)
chain: not shown
B5: Nek7 N90K (enzyme)
chain: not shown

The target in data set [1] is T1, Nek7-His6, full-length wild type, unphosphorylated (human, UniProt Q8TDX7 1-302).
T1 construct: Nek7 (NIMA-related kinase 7), human, full length; also called Nek7^WT; unphosphorylated Nek7^WT; source: E. coli Codonplus RPIL, co-expressed with or without λ-phosphatase, purified (HisTRAP, Superdex-200); not shown: His6, C-terminal, kept
T1 sequence (Q8TDX7 whole entry): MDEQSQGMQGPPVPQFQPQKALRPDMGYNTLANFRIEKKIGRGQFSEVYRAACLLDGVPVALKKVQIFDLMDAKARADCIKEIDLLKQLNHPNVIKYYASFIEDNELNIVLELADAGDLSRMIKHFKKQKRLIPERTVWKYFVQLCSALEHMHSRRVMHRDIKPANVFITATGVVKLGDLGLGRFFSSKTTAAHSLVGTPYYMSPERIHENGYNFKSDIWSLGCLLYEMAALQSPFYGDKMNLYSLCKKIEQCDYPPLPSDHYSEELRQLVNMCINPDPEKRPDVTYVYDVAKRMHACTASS
In words: pull-down; GST co-precipitation: 100 μg GST-Nek9 protein immobilised on glutathione sepharose-4B beads, incubated with 100 μg Nek7 in 500 μl for 1 h at 4 °C; 50 mM HEPES pH 7.5, 300 mM NaCl, 5% glycerol, 5 mM dithiothreitol, 0.05% Tween-20; Coomassie staining or immunoblot with α-His6. To be noted: both partners purified.

Data set [2] concerns the molecule itself. In words: cell-based or functional assay.
For data set [3], the target named is B5. The data set is described as follows: pull-down; GST co-precipitation: 100 μg GST-Nek9 protein immobilised on glutathione sepharose-4B beads, incubated with 100 μg Nek7 in 500 μl for 1 h at 4 °C; 50 mM HEPES pH 7.5, 300 mM NaCl, 5% glycerol, 5 mM dithiothreitol, 0.05% Tween-20; Coomassie staining or immunoblot with α-His6. To be noted: both partners purified.

For data set [4], the target named is T2, Nek7 K96E (human, UniProt Q8TDX7 1-302, K96E).
T2 construct: Nek7, human, full length; source: E. coli Codonplus RPIL, co-expressed with or without λ-phosphatase, purified (HisTRAP, Superdex-200)
T2 sequence (Q8TDX7 whole entry K96E): as the sequence (Q8TDX7 whole entry) above, with K96E counted along it
The data set is described as above. To be noted: both partners purified.

Data set [5] deals with T3, Nek7^Y97F, full length (human, UniProt Q8TDX7 1-302, Y97F).
T3 construct: Nek7, human, full length; residues 20-300 modelled in the structure; source: E. coli Codonplus RPIL, co-expressed with or without λ-phosphatase, purified (HisTRAP, Superdex-200)
T3 sequence (Q8TDX7 whole entry Y97F, the tested form may be a part): as the sequence (Q8TDX7 whole entry) above, with Y97F counted along it
Described as above. To be noted: both partners purified.

The target in data set [6] is B2. Described as above. To be noted: both partners purified.
Data set [7] addresses B4. The data set is described as above. To be noted: both partners purified.
Data set [8] addresses T4, phosphorylated Nek7^WT (human, UniProt Q8TDX7 1-302, phosphorylated (sites not stated for this preparation)).
T4 construct: Nek7, human, full length; also called phospho-Nek7^WT; source: E. coli Codonplus RPIL, co-expressed with or without λ-phosphatase, purified (HisTRAP, Superdex-200)
The description is as above. To be noted: both partners purified.

The target of data set [9] is T5, Nek7^Y97A, full length (human, UniProt Q8TDX7 1-302, Y97A).
T5 construct: Nek7, human, full length; source: E. coli Codonplus RPIL, co-expressed with or without λ-phosphatase, purified (HisTRAP, Superdex-200)
T5 sequence (Q8TDX7 whole entry Y97A): as the sequence (Q8TDX7 whole entry) above, with Y97A counted along it
Described as above. To be noted: both partners purified.

In data set [10] the target is T3, Nek7^Y97F, full length. The data set is described as follows: crystal structure; co-crystallisation by sitting drop vapour diffusion, Nek7^Y97F at 440 μM and Nek9 peptide at 880 μM; 0.2 M potassium thiocyanate, 0.1 M bis-Tris propane pH 7.5, 20% PEG 3350; 2.78 Å, space group P3_(1) 2 1. To be noted: both partners purified.

T4 sequence (Q8TDX7 whole entry): as the sequence (Q8TDX7 whole entry) above

B1: GST-Nek9 810–828 (domain or fragment, human, UniProt Q8TD19 810-828, looked up)
chain: GWLRKELENAEFIPMPDSP
notes: source: E. coli, purified (glutathione sepharose)
With B1, the binding result in [1] is on record as “binds”.
As for B2, the “fold decrease in in vitro kinase activity of the initially unphosphorylated Nek7 mutant, against WT (32P incorporation, scintillation counting)” value in [2] is around 2 fold.

B3: GST-Nek9-CTD (aa 726–979) (domain or fragment, human, UniProt Q8TD19 726-979, looked up)
chain: KVLNSKTIRSNSSGLSIGTVFQSSSPGGGGGGGGGEEEDSQQESETPDPSGGFRGTMEADRGMEGLISPTEAMGNSNGASSSCPGWLRKELENAEFIPMPDSPSPLSAAFSESEKDTLPYEELQGLKVASEAPLEHKPQVEASSPRLNPAVTCAGKGTPLTPPACACSSLQVEVERLQGLVLKCLAEQQKLQQENLQIFTQLQKLNKKLEGGQQVGMHSKGTQTAKEEMEMDPKPDLDSDSWCLLGTDSCRPSL
notes: Nek9, human, C-terminal domain, residues 726-979; For some kinase assays the GST tag was removed with 3C protease; also called Nek9 non-catalytic C-terminal domain; N9 CTD; source: E. coli, purified (glutathione sepharose); not shown: GST, N-terminal, kept
For the molecule B3, the binding result in data set [3], in [1], in [4], in data set [5], in [6] and in data set [7] was “binds” in each case. The binding result in data set [8] and in data set [9] was “binds” each time.
With B4, in data set [2], the “in vitro kinase activity of the initially unphosphorylated Nek7 mutant, in the presence or absence of Nek9-CTD, against WT (32P incorporation, scintillation counting)” value was at most 10 fold.
As for B5, in [2], the “in vitro kinase activity of the initially unphosphorylated Nek7 mutant, in the presence or absence of Nek9-CTD, against WT (32P incorporation, scintillation counting)” value is at most 10 fold.

B6: synthetic peptide corresponding to aa 810–828 of Nek9 (peptide, UniProt Q8TD19 810-828, looked up)
peptide: GWLRKELENAEFIPMPDSP
notes: source: synthetic peptide (Peptide Synthetics)
B6: the binding result in [10] was “binds”.
